From patent US20230111363A1

Legend:
[1] = biological target: human FcγRI (CD64) extracellular domain (human) (UniProt P12314); assay: SPR (Biacore T100), antibody captured on Protein A, FcγR ECD as analyte, 25 C
[2] = biological target: human FcγRIIA_131H (CD32a) extracellular domain (human) (UniProt P12318); assay: SPR (Biacore T100), antibody captured on Protein A, FcγR ECD as analyte, steady state, 25 C
[3] = biological target: human FcγRIIA_131R (CD32a) extracellular domain (human) (UniProt P12318); assay: as above
Sequence of human FcγRIIA_131R (CD32a) extracellular domain (human) (P12318 34-217 H167R): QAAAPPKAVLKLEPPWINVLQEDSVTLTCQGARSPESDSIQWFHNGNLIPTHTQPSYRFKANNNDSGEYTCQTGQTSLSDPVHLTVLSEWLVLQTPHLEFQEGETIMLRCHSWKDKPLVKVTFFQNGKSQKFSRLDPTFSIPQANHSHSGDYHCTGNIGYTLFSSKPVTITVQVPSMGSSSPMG

[4] = biological target: human FcγRIIIA_F158 (CD16a) extracellular domain (human) (UniProt P08637); assay: as above
Sequence of human FcγRIIIA_F158 (CD16a) extracellular domain (human) (P08637 17-208): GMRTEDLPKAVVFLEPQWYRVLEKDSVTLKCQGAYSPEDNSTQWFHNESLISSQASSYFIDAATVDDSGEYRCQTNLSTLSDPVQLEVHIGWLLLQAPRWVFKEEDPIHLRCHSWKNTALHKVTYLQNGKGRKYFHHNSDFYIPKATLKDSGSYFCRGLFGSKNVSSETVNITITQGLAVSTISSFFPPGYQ

[5] = biological target: human FcγRIIb (CD32b) extracellular domain (human) (UniProt P31994); assay: as above
Sequence of human FcγRIIb (CD32b) extracellular domain (human) (P31994 43-217): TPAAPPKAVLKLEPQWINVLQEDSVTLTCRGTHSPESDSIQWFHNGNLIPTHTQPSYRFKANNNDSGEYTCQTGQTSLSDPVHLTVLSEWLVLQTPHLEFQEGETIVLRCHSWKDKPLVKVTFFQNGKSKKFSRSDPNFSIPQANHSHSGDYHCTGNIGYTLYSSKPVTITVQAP

Sequence of human FcγRI (CD64) extracellular domain (human) (P12314 16-292): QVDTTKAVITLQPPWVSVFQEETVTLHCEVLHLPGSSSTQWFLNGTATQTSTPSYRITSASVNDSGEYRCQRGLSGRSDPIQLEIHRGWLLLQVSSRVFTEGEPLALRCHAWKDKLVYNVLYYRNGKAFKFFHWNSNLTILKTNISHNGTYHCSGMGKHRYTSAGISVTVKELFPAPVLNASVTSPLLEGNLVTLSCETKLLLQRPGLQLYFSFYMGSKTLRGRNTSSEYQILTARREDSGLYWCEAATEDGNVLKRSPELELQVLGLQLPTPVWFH
Sequence of human FcγRIIA_131H (CD32a) extracellular domain (human) (P12318 34-217): as the sequence (P12318 34-217 H167R) above, with R134H counted along it

Kd [1]: 0.0426 nM | Kd [2]: 500 nM | Kd [3]: 500 nM | Kd [4]: 900 nM | Kd [5]: 1900 nM
Substance: Human WT IgG1 Fc (antibody)
